# Assay results as given in US20260028391A1 (HUMABS BIOMED, published 2026).
# Changes are numbered by the printed parent chain. Names and notes keep the numbering of the source.
# B1: MPK104-rIgG1-LS (antibody, V domains shown)
# VH: EVQLVESGGGLVKPGGSLRLSCAASGFTIDGYGMNWVRQAPGKGLEWVSSISASSNYIYYADSMKGRFTISRDNGKNSLYLQMHSLRVEDTGVYYCARAPLEPPYFDLWGRGTLVTVSS
# VL: QSVLTQPPSVSGAPGQRVTISCSGGSSNIGAGYDVHWYQQVPGKGPKVLIYGNNNRPSGVPDRFSGSNFGASASLAITGLQADDEADYFCQSYDRRLGGPVFGGGTKLTVL
# B2: MPH12-v17 (VH-FRGL-D62E/VL-D25S) (antibody, V domains shown)
# VH: QVQLVESGGGLVKPGGSLRLSCAASGFTFSGFYMKWIRQAPGKGLEWVSSISASGSYTNYAESVEGRFTISRDNAKNSLYLQMNSLRAEDTAVYYCARGDSYCGASACHGEFFHKWGQGTLVTVSS
# VL: QSVLTQPPSVSGAPGQRVTISCTGSSSNIGADFDVHWYQQLPGTAPKLLIYGNINRPSGVPDRFSGSRSGTSAFLAITRLQAEDEADYYCQSYDRSLHYVFGAGTKVTVL
# notes: also called MPH12 VH-FRGL-D62E / MPH12 VL-D25S
# B3: MPH12 VH / MPH12 VL-D25S (antibody, V domains shown)
# VH: B2 VH with A23V, E62D, I70V, Y80F, Q82L, N84S
# VL: B2 VL
# notes: MPH12 variant; VH and VL only
# B4: MPH12 VH-FRGL-D62E / MPH12 VL-D25E (antibody, V domains shown)
# VH: B2 VH
# VL: B2 VL with S26E
# notes: MPH12 variant; VH and VL only
# B5: MPH12 VH-S63A / MPH12 VL (antibody, V domains shown)
# VH: B2 VH with A23V, E62D, S63A, I70V, Y80F, Q82L, N84S
# VL: B2 VL with S26D
# notes: MPH12 variant; VH and VL only
# B6: MPH12-rIgG1-LS (antibody, V domains shown)
# VH: B2 VH with A23V, E62D, I70V, Y80F, Q82L, N84S
# VL: B2 VL with S26D
# B7: MPH12 VH-FRGL-D62E / MPH12 VL (antibody, V domains shown)
# VH: B2 VH
# VL: B2 VL with S26D
# notes: MPH12 variant; VH and VL only
# B8: MPH12-v29 (VH-FRGL-D62E/VL-S26A) (antibody, V domains shown)
# VH: B2 VH
# VL: B2 VL with S26D, S27A
# notes: also called MPH12 VH-FRGL-D62E / MPH12 VL-S26A
# B9: MPH12 VH / MPH12 VL-D25E (antibody, V domains shown)
# VH: B2 VH with A23V, E62D, I70V, Y80F, Q82L, N84S
# VL: B2 VL with S26E
# notes: MPH12 variant; VH and VL only
# B10: MPH12 VH / MPH12 VL-S26A (antibody, V domains shown)
# VH: B2 VH with A23V, E62D, I70V, Y80F, Q82L, N84S
# VL: B2 VL with S26D, S27A
# notes: MPH12 variant; VH and VL only
# B11: MPH12 VH-FRGL-S63A / MPH12 VL-D25E (antibody, V domains shown)
# VH: B2 VH with E62D, S63A
# VL: B2 VL with S26E
# notes: MPH12 variant; VH and VL only
# B12: MPH12 VH-FRGL-S63A / MPH12 VL-FRGL (antibody, V domains shown)
# VH: B2 VH with E62D, S63A
# VL: B2 VL with S26D, R68K, F74S, R79G, A103T
# notes: MPH12 variant; VH and VL only
# B13: MPH12-v35 (VH-FRGL-D62E/VL-FRGL-D25S) (antibody, V domains shown)
# VH: B2 VH
# VL: B2 VL with R68K, F74S, R79G, A103T
# B14: MPH12 VH-FRGL-D62E / MPH12 VL-FRGL (antibody, V domains shown)
# VH: B2 VH
# VL: B2 VL with S26D, R68K, F74S, R79G, A103T
# notes: MPH12 variant; VH and VL only
# B15: MPH12-v34 (VH-FRGL-S63A/VL-FRGL-D25S) (antibody, V domains shown)
# VH: B2 VH with E62D, S63A
# VL: B2 VL with R68K, F74S, R79G, A103T
# B16: MPH12 VH / MPH12 VL-FRGL (antibody, V domains shown)
# VH: B2 VH with A23V, E62D, I70V, Y80F, Q82L, N84S
# VL: B2 VL with S26D, R68K, F74S, R79G, A103T
# notes: MPH12 variant; VH and VL only
# B17: MPH12 VH-FRGL-S63A / MPH12 VL (antibody, V domains shown)
# VH: B2 VH with E62D, S63A
# VL: B2 VL with S26D
# notes: MPH12 variant; VH and VL only
# B18: MPK77-rIgG1-LS (antibody, V domains shown)
# VH: EVQLVESGGGLVKPGGSLRLSCAASKSFSGYYMIWIRQAPGRGLEWIADISGSSTYTDYADSVKGRFTISRDNTRNTLYLQMNSLRPEDTAVYYCATEQVPSPGPFDLWGPGTLVTVSS
# VL: QSVLTQPPSVSGAPGQRVIISCTGSSSNIGAGYDVHWYQQFPGTSPKLLIYRNTNRPSGVPDRFSGFKSGASAALAITGLQAEDEADYYCQSYDRSLSGWAFGGGTKVTVL
# B19: MPK190-rIgG1-LS (antibody, V domains shown)
# VH: EVQLVESGGGLVKPGGSLTLSCAASGFSISGYGMNWVRQAPGRGLEWVASISASSTYIYYADSMKGRFTISRDNGKTSLYLQMKSLRAEDTAVYYCARAPIEPPYFDLWGRGTLVTVSS
# VL: QSVLTQPPSVSGAPGQRVTISCTGSNSNIGAGYDVHWYQHLPGKAPKVLIYGNNNRPSVVPDRFSGSNSGASASLAISGLQAEDEADYFCQSYDRRLSGPIFGGGTKLTVL
# B20: MPK169-v2 (antibody, V domains shown)
# VH: EVQLVQSGAEVKKPGESLTISCQTSGYSFINYWIGWVRQMPGKGLEWMGVIYPFDSDTEYSPSFRGHVTISADKSINTAYLQWNSLGASDTAMYYCARFTFGIALVSGDVNGEGHAFDVWGRGTLVTVSS
# VL: EIVLTQSPPTLSVSPGQRATLSCRASQSVADKLAWYQQRPGQAPRLLIYGASSRATGVPARFSGSGSETEFTLTITSLQSEDFALYYCHQYNNWPHAFGQGTRLVIK
# Columns and labels:
# [1] = target: fusion glycoprotein (F) of RSV A GFP (Tables 41 and 42) (respiratory syncytial virus A); assay: cell-based or functional assay
# [2] = target: fusion glycoprotein (F) of RSV B GFP (Tables 41 and 42) (respiratory syncytial virus B); assay: cell-based or functional assay
# [3] = target: fusion glycoprotein (F) of MPV A GFP (Tables 41 and 43) (metapneumovirus A); assay: cell-based or functional assay
# [4] = target: fusion glycoprotein (F) of the RSV used in the GFP-based neutralization assay of Table 23 (respiratory syncytial virus); assay: cell-based or functional assay
# [5] = target: fusion glycoprotein (F) of the MPV (non-D280N) used in the GFP-based neutralization assay of Table 23 (metapneumovirus); assay: cell-based or functional assay
# [6] = target: RSV fusion glycoprotein (RSV-F) (respiratory syncytial virus); assay: biolayer interferometry (BLI), rIgG1 with M428L/N434S
# DS-Cav1 RSV F = target: T1, DS-Cav1 RSV F (respiratory syncytial virus); assay: ELISA on DS-Cav1 RSV F
# T1 construct: also called DC-VCav1
# [7] = target: fusion glycoprotein of the RSV used in the neutralization assay of Example 1 (respiratory syncytial virus (strain not …)); assay: cell-based or functional assay
binder,measurement,setting,value
B1,"IC50 (ng/ml), RSV A GFP neutralization",[1],7.44 ng/mL
same,"IC50 (ng/ml), RSV B GFP neutralization",[2],5.23 ng/mL
same,"IC50 (ng/ml), MPV A GFP neutralization",[3],6.79 ng/mL
B2,"RSV IC 50 (ng/mL), GFP-based in vitro neutralization",[4],44.9 ng/mL
same,"MPV IC50 (ng/mL), GFP-based in vitro neutralization",[5],30.4 ng/mL
same,Kd,[6],0.39 nM
B3,EC50,DS-Cav1 RSV F,0.0235 µg/mL
B4,EC50,DS-Cav1 RSV F,0.0397 µg/mL
B5,EC50,DS-Cav1 RSV F,0.0358 µg/mL
B6,"IC50 (ng/ml), RSV A GFP neutralization",[1],6.55 ng/mL
same,"IC50 (ng/ml), RSV B GFP neutralization",[2],5.23 ng/mL
same,"IC50 (ng/ml), MPV A GFP neutralization",[3],13 ng/mL
B7,EC50,DS-Cav1 RSV F,0.051 µg/mL
B8,"RSV IC 50 (ng/mL), GFP-based in vitro neutralization",[4],60.3 ng/mL
same,"MPV IC50 (ng/mL), GFP-based in vitro neutralization",[5],35.2 ng/mL
same,Kd,[6],0.34 nM
B9,EC50,DS-Cav1 RSV F,0.0438 µg/mL
B10,EC50,DS-Cav1 RSV F,0.0508 µg/mL
B11,EC50,DS-Cav1 RSV F,0.0368 µg/mL
B12,EC50,DS-Cav1 RSV F,0.0153 µg/mL
B13,"RSV IC 50 (ng/mL), GFP-based in vitro neutralization",[4],57.5 ng/mL
same,"MPV IC50 (ng/mL), GFP-based in vitro neutralization",[5],39.9 ng/mL
same,Kd,[6],0.46 nM
B14,EC50,DS-Cav1 RSV F,0.0349 µg/mL
B15,"RSV IC 50 (ng/mL), GFP-based in vitro neutralization",[4],48.6 ng/mL
same,"MPV IC50 (ng/mL), GFP-based in vitro neutralization",[5],31.9 ng/mL
same,Kd,[6],0.5 nM
B16,EC50,DS-Cav1 RSV F,0.0358 µg/mL
B17,EC50,DS-Cav1 RSV F,0.0238 µg/mL
B18,"IC50 (ng/ml), RSV A GFP neutralization",[1],6.77 ng/mL
same,"IC50 (ng/ml), RSV B GFP neutralization",[2],7.32 ng/mL
same,"IC50 (ng/ml), MPV A GFP neutralization",[3],12.9 ng/mL
B19,"IC50 (ng/ml), RSV A GFP neutralization; sample MPK190-rIgG1-LS/4B6",[1],3.73 ng/mL
same,"IC50 (ng/ml), RSV A GFP neutralization; sample MPK190-rIgG1-LS/KYT",[1],3.88 ng/mL
same,"IC50 (ng/ml), RSV A GFP neutralization; stressed sample MPK190-rIgG1-LS day 0",[1],3.21 ng/mL
same,"IC50 (ng/ml), RSV A GFP neutralization; stressed sample MPK190-rIgG1-LS day 7",[1],2.94 ng/mL
same,"IC50 (ng/ml), RSV A GFP neutralization; stressed sample MPK190-rIgG1-LS day 12 (day 13 in Table 41)",[1],7.02 ng/mL
same,"IC50 (ng/ml), RSV B GFP neutralization; sample MPK190-rIgG1-LS/4B6",[2],6.39 ng/mL
same,"IC50 (ng/ml), RSV B GFP neutralization; sample MPK190-rIgG1-LS/KYT",[2],3.36 ng/mL
same,"IC50 (ng/ml), RSV B GFP neutralization; stressed sample MPK190-rIgG1-LS day 0",[2],4.1 ng/mL
same,"IC50 (ng/ml), RSV B GFP neutralization; stressed sample MPK190-rIgG1-LS day 7",[2],4.4 ng/mL
same,"IC50 (ng/ml), RSV B GFP neutralization; stressed sample MPK190-rIgG1-LS day 12 (day 13 in Table 41)",[2],4.51 ng/mL
same,"IC50 (ng/ml), MPV A GFP neutralization; sample MPK190-rIgG1-LS/4B6",[3],6.16 ng/mL
same,"IC50 (ng/ml), MPV A GFP neutralization; sample MPK190-rIgG1-LS/KYT",[3],7.9 ng/mL
same,"IC50 (ng/ml), MPV A GFP neutralization; stressed sample MPK190-rIgG1-LS day 0",[3],7.22 ng/mL
same,"IC50 (ng/ml), MPV A GFP neutralization; stressed sample MPK190-rIgG1-LS day 7",[3],5.8 ng/mL
same,"IC50 (ng/ml), MPV A GFP neutralization; stressed sample MPK190-rIgG1-LS day 13",[3],8.39 ng/mL
B20,RSV Neutralization - IC50,[7],1.4 ng/mL
